{
  "source": "patent US20120277286A1",
  "about": "“COMPOSITIONS AND METHODS FOR THE TREATMENT OR PREVENTION OF MITOCHONDRIAL DISEASES” (The Government of the USA, as represented by the Secretary, …, priority 2009, published 2012)",
  "key": {"HeLa cells [1]": {"system": "HeLa cells", "assay": "Live cell imaging, time to Parkin translocation", "type": "cell-based", "settings": "mCherry-Parkin alone (CCCP line) or with PINK1-YFP 1:1, 10 μM CCCP", "experimental": "FIGS. 13A-13D show the kinetics of Parkin recruitment are modulated by PINK1 expression. […] The cells were imaged live following the addition of 10 μM CCCP in serum at time point 0 min FIG. 13B lists the vectors used for transfection of HeLa cells with mCherry-Parkin and the indicated construct in a 1:1 ratio were treated as in (A) and imaged live (1 frame/minute) following the addition of CCCP. Time to the beginning of Parkin translocation was defined as the first appearance of puncta in ≧2 quandrants of the cell for ≧2 consecutive images for ≧6 cells in ≧3 independent experiments. […] Cells were loaded with TMRE (red) to stain polarized mitochondria. Cells were not treated with CCCP. Scale bars in last image=10 μm. FIG. 13D is a graph that quantitates results in cells treated as described in FIG. 13C, which were scored for co-localization between YFP-Parkin and TMRE. ≧50 cells/experiment were scored in ≧3 independent experiments.\n(§1) Confocal microscopy of fixed samples, scoring of Parkin recruitment and Parkin-induced mitophagy, and live cell imageing were performed as described previously (Narendra (2008) J Cell Biol 183: 795-803). Experiments in Mfn1/2 null cells were performed as described previously with minor modifications described in the supplemental methods (Narendra (2008) J Cell Biol 183: 795-803)."}, "[2]": {"system": "PINK1+/+ or PINK1−/− MEFs", "assay": "YFP-Parkin recruitment to mitochondria in MEFs", "type": "cell-based, mouse", "settings": "for Parkin recruited to mitochondria, % of cells: CCCP", "source_text": "HeLa YFP-Parkin, PINK1+/+ SV40 transformed MEFs cells, PINK1−/− SV40 transformed MEF, M17 neuroblastoma control shRNA, M17 neuroblastoma PINK1, and Mfn1/2−/− MEF cell lines have been described previously (Narendra (2008) J Cell Biol 183: 795-803). PINK1+/+ and PINK1−/− primary MEFs were isolated from embryos using a standard protocol (Gautier (2008) Proc Natl Acad Sci USA 105: 11364-11369). Parkin+/+ and Parkin−/− transformed MEFs were created by isolation of primary cells from embryos of B6.129S4-Park2tm1Shn/J mice (Jackson Labs), using a standard protocol (Gautier (2008) Proc Natl Acad Sci USA 105: 11364-11369), followed by retroviral transduction of SV40 (Applied Biological Materials, Inc.). YFP-Parkin, YFPParkin mutants, mCherry-Parkin, PINK1-YFP, PINK1 KD-YFP, PINK1 Δ1-110-YFP, and Opa3-PINK1 Δ1-110-YFP are in C1 or N1 Clontech vectors. PINK1WT-V5, PINK1 KD-V5, and PINK1 Δ1-156-V5 are in pDest40 vector (Invitrogen). PINK1 patient mutations are in pLenti-V5 vector (Invitrogen). PINK1-myc is in a pCMBTNT vector (Promega).\n(§2) Confocal microscopy of fixed samples, scoring of Parkin recruitment and Parkininduced mitophagy, and live cell imaging were performed as described previously (Narendra (2008) J Cell Biol 183: 795-803). Experiments in Mfn1/2 null cells were performed as described previously with minor modifications.\nHeLa YFP-Parkin, E18 Rat cortical neurons, PINK1^+/+ SV40 transformed MEFs cells, PINK1^−/− SV40 transformed MEF, M17 neuroblastoma control shRNA, M17 neuroblastoma PINK1, Mfn1/2^−/− MEF, and Parl^−/− MEF cell lines have been described previously (Narendra (2008) J Cell Biol 183: 795-803). PINK1^+/+ and PINK1^−/− primary MEFs were isolated from embryos using a standard protocol (Gautier (2008) Proc Natl Acad Sci USA 105: 11364-11369). Parkin^+/+ and Parkin^−/− transformed MEFs were created by isolation of primary cells from embryos of B6.129S4-Park2^tm1Shn/J mice (Jackson Labs), using a standard protocol (Gautier (2008) Proc Natl Acad Sci USA 105: 11364-11369), followed by retroviral transduction of SV40 (Applied Biological Materials, Inc.). YFP-Parkin, YFP-Parkin mutants, mCherry-Parkin, PINK1-YFP, PINK1 KD-YFP, PINK1 Δ1-110-YFP, and Opa3-PINK1 Δ1-110-YFP are in C1 or N1 Clontech vectors. PINK1WT-V5, PINK1 KD-V5, and PINK1 Δ1-156-V5 are in pDest40 vector (Invitrogen). PINK1 patient mutations are in the pLenti-V5 vector (Invitrogen). PINK1-myc is in a pCMBTNT vector (Promega). The PARL shRNA construct targeting (5′ […] 3′) is in the pSuper-GFP vector. To make FRB-PINK1 (111-581)-YFP and Tom20 (1-33)-FKBP, PCR fragments containing PINK1 (111-581)-YFP and Tom20 (1-33) were cloned into the BamHI site of the pC4-RHE vector and the EcoRI and XbaI sites of pC4M-F2E vectors, respectively (ARIAD Pharmaceuticals). The rapamycin analogue AP21967 was obtained from ARIAD Pharmaceuticals. The PARL shRNA construct targeting (5′ […] 3′) is in the pSuper-GFP vector (OligoEngine).\nas §1"}, "HeLa cells [3]": {"system": "HeLa cells", "assay": "Parkin-induced mitophagy, loss of mitochondria by immunocytochemistry", "type": "cell-based", "experimental": "Cultured cells seeded in borosilicate chamber slides (Thermo Fisher Scientific) were transfected or cotransfected with YFP-Parkin, ECFP-Parkin, mCherry-Parkin, DsRed-Mito (Clontech Laboratories, Inc.), pcDNA3.1 (Invitrogen), vMIA, and/or Drp1K38A constructs using Fugene 6 (Roche). Parkin-myc was a gift from M. Cookson (National Institutes of Health, Bethesda, Md.). Cells were fixed 12-24 hours after transfection with 4% paraformaldehyde in PBS. Cells were stained with following primary antibodies: mouse monoclonal cytochrome c (BD), rabbit polyclonal Tom20 (Santa Cruz Biotechnology, Inc.), mouse monoclonal Parkin PRK8 (Santa Cruz Biotechnology, Inc.), rabbit polyclonal PMP70 (Invitrogen), and/or mouse monoclonal TRAP1 (Abcam); and with the following secondary antibodies: mouse and/or rabbit Alexa 488, 594, and 633 (Invitrogen). For assessment of mitochondrial membrane potential, cells were pulsed with 50 nM Mito-Tracker red (Invitrogen) for 15 min, washed, and incubated for an additional 10 minutes before fixation or imaging. For assessment of cell metabolic potential, cell nuclei were stained with Hoechst 33342 (Invitrogen).\nas §2, §1"}},
  "data": [
    {"molecule": "N#CC(C#N)=NNc1cccc(Cl)c1", "note": "[CCCP, carbonyl cyanide m-chlorophenylhydrazone]", "values": [
      {"measurement": "time to translocation of Parkin", "setting": "HeLa cells [1]", "value": "32.0 ± 5.4", "unit": "min"},
      {"measurement": "YFP-Parkin recruited to mitochondria, % of cells", "setting": "[2]; PINK1+/+ primary MEFs, 20 μM CCCP, 3 hours", "value": "43.3±8.1", "unit": "%"},
      {"measurement": "Parkin recruited to mitochondria, % of cells", "setting": "[2]; SV40 transformed PINK1+/+ MEFs", "value": "60.7±7.7", "unit": "%"}
    ]},
    {"molecule": "YFP-Parkin: YFP-tagged Parkin E3 ligase expressed from a transfected vector (protein, UniProt O60260 1-465, looked up, YFP fusion, YFP-tagged Parkin E3 ligase expressed from a transfected vector) E3 ubiquitin-protein ligase …: MIVFVRFNSSHGFPVEVDSDTSIFQLKEVVAKRQGVPADQLRVIFAGKELRNDWTVQNCDLDQQSIVHIVQRPWRKGQEMNATGGDDPRNAAGGCEREPQSLTRVDLSSSVLPGDSVGLAVILHTDSRKDSPPAGSPAGRSIYNSFYVYCKGPCQRVQPGKLRVQCSTCRQATLTLTQGPSCWDDVLIPNRMSGECQSPHCPGTSAEFFFKCGAHPTSDKETSVALHLIATNSRNITCITCTDVRSPVLVFQCNSRHVICLDCFHLYCVTRLNDRQFVHDPQLGYSLPCVAGCPNSLIKELHHFRILGEEQYNRYQQYGAEECVLQMGGVLCPRPGCGAGLLPEPDQRKVTCEGGNGLGCGFAFCRECKEAYHEGECSAVFEASGTTTQAYRVDERAAEQARWEAASKETIKKTTKPCPRCHVPVEKNGGCMHMKCPQPQCRLEWCWNCGCEWNRVCMGDHWFDV", "values": [
      {"measurement": "cells with no mitochondria", "setting": "HeLa cells [3]; HeLa expressing YFP-Parkin variant, CCCP 24 hours", "value": "59.0±15.1", "unit": "%"},
      {"measurement": "mitochondrial mass in Parkin-expressing cells", "setting": "HeLa cells [3]; HeLa, 10 μM CCCP, 12 hours", "value": "grossly reduced"},
      {"measurement": "mitochondria detectable in Parkin-expressing cells (Tom20, cytochrome c, TRAP1)", "setting": "HeLa cells [3]; HeLa, 10 μM CCCP, 48 hours", "value": "no mitochondria remained detectable"}
    ]},
    {"molecule": "PINK1: exogenously expressed wild type PINK1 (V5 or myc tagged) (protein, UniProt Q9BXM7 78-581, looked up, V5 or myc tag) Serine/threonine-protein …: AARLQRQFVVRAWGCAGPCGRAVFLAFGLGLGLIEEKQAESRRAVSACQEIQAIFTQKSKPGPDPLDTRRLQGFRLEEYLIGQSIGKGCSAAVYEATMPTLPQNLEVTKSTGLLPGRGPGTSAPGEGQERAPGAPAFPLAIKMMWNISAGSSSEAILNTMSQELVPASRVALAGEYGAVTYRKSKRGPKQLAPHPNIIRVLRAFTSSVPLLPGALVDYPDVLPSRLHPEGLGHGRTLFLVMKNYPCTLRQYLCVNTPSPRLAAMMLLQLLEGVDHLVQQGIAHRDLKSDNILVELDPDGCPWLVIADFGCCLADESIGLQLPFSSWYVDRGGNGCLMAPEVSTARPGPRAVIDYSKADAWAVGAIAYEIFGLVNPFYGQGKAHLESRSYQEAQLPALPESVPPDVRQLVRALLQREASKRPSARVAANVLHLSLWGEHILALKNLKLDKMVGWLLQQSAATLLANRLTEKCCVETKMKMLFLANLECETLCQAALLLCSWRAAL", "values": [
      {"measurement": "time to translocation of Parkin", "setting": "HeLa cells [1]", "value": "5.0 ± 1.5", "unit": "min"},
      {"measurement": "reconstitution of YFP-Parkin recruitment", "setting": "[2]; PINK1−/− primary MEFs co-transfected with construct, 20 μM CCCP, 3 hours", "value": "reconstituted"},
      {"measurement": "YFP-Parkin recruited to mitochondria, % of cells", "setting": "[2]; PINK1−/− primary MEFs expressing the PINK1 construct, 20 μM CCCP, 3 hours", "value": "78.6±3.9", "unit": "%"},
      {"measurement": "Parkin recruited to mitochondria, % of cells", "setting": "[2]; SV40 transformed PINK1−/− MEFs with exogenous construct", "value": "72.8±7.7", "unit": "%"},
      {"measurement": "cells with no mitochondria", "setting": "HeLa cells [3]; HeLa, co-transfection with Parkin, 96 hours, absence of CCCP", "value": "42.1±7.3", "unit": "%"}
    ]}
  ]
}
